Experimental data from US20240252689A1, “POLY-ADP RIBOSE (PAR) TRACKER OPTIMIZED SPLIT-PROTEIN REASSEMBLY PAR DETECTION REAGENTS” (THE BOARD OF REGENTS OF THE UNIVERSITY OF TEXAS SYSTEM, priority 2021, published 2024).

How the values were obtained:
PARylated PARP-1 = PARylated PARP-1 (Homo sapiens, UniProt P09874); assay: In vitro ADP-ribosylation assay with ARBD-ddGFP pairs, recombinant PARP-1; format: biochemical; conditions: ARBD fused to ddGFP-A/B, recombinant proteins
Source text: Dimerization-dependent GFP is a genetically encoded sensor that was initially developed to study protein interactions. In this system, a pair of a quenched GFP (ddGFPA) and a non-fluorogenic GFP (ddGFPB) form a heterodimer that can result in improved fluorescence. In this example, a ddGFP-based fluorescence sensor (fluorescent PAR-Trackers or PAR-T) was designed to allow for live cell imaging, with high signal-noise ratio. To achieve this, the various ADPR reader domains (ARBDs) were fused to ddGFP-A/B and purified as recombinant proteins (FIG. 1A, FIG. 1B, FIG. 6A). In vitro ADP-ribosylation assays were performed using recombinant PARP-1 (to detect PAR) and PARP-3 (to detect MAR) specifically (FIG. 6B and FIG. 6C). […] These reagents recognized PARylated-PARP-1 but not MARylated PARP-3, or the precursors of ADPR (FIG. 1C). Accordingly, the utility of these reagents was further tested in in vitro PARP-1 PARylation reactions with increasing concentrations of NAD+(FIGS. 6F and 6G) and increasing time of reaction (FIG. 1D and FIG. 1E). Similarly, degradation of PAR chains by ARH3 was detected in a time (FIG. 1F and FIG. 1G) and dose (FIG. 6H) dependent way. Further, in vitro reactions were performed by incubating the recombinant PAR-T sensors and lysates from Hela cells treated with H2O2 to induce DNA damage and activate PARP-1.

PARP-1 activation = assay: Live cell imaging with ddGFP PAR-T after H2O2-mediated PARP-1 activation; format: cell-based; conditions: cells treated with H2O2, compared to ddGFP alone
Description: Cells were treated with various inhibitors as described herein. For inhibition of nuclear PARPs, cells were treated with PJ-34 ([…]; Enzo, ALX-270) or Olaparib (20 µM; MedChem Express, HY-10162) for 2 hours. For inhibition of PARG, cells were treated with PDD 00017273 (20 µM; MedChem Express, HY-108360) for 2 hours. For UV-induced DNA damage, the cells were harvested 15 minutes after treatment with 50 mJ/cm2 UV irradiation.
Having confirmed the specificity of the PAR-T sensors, their utility in live cell imaging was then tested. PAR-T sensors were expressed in Hela cells in a doxycycline-dependent manner and live cell imaging performed after subjecting the cells to H2O2-mediated PARP-1 activation (FIG. 7A). This PAR-T construct also expresses mCherry with nuclear localization signal (NLS) to illuminate the nuclei and act as a control for variability in expression of the constructs (FIG. 7A). […] Using the WWE-based ddGFP PAR-T construct, accumulation of PAR after H2O2-treatment was detected in real time.
Next, a set of assays was performed to compare the performance of the PAR-T sensors to conventional PAR detection reagents (WWE-Fc and PAR antibody) in a variety of assays. […]

PARylated PARP-1, sequence (P09874 whole entry, the tested form may be a part): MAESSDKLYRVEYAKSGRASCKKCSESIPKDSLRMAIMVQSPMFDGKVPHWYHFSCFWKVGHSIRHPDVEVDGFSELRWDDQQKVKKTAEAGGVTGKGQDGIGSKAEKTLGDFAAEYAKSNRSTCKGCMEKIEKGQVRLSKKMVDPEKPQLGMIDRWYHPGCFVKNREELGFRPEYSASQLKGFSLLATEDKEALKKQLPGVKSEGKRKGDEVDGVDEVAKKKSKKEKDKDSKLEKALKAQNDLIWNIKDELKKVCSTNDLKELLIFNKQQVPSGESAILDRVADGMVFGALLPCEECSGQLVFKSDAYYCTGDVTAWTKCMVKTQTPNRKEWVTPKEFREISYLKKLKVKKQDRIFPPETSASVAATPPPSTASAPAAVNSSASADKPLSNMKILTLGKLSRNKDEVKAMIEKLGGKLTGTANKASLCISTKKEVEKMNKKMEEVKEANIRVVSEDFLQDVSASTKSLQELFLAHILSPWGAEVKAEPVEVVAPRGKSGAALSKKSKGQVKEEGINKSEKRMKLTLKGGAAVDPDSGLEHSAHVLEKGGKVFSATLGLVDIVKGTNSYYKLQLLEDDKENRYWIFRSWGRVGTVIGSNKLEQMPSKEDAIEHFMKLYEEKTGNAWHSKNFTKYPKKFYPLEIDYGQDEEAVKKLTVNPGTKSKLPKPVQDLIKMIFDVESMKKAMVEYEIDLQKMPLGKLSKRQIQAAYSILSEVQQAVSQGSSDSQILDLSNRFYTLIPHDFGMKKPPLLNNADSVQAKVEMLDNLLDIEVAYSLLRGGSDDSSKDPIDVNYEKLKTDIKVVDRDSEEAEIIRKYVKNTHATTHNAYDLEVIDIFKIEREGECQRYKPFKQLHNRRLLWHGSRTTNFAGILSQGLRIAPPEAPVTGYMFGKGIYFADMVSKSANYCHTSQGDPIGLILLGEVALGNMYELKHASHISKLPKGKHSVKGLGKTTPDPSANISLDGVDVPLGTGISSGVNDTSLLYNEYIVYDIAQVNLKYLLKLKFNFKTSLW

Row | Molecule | recognizing PARylated PARP-1 (fluorescence) (PARylated PARP-1; listed as WWE domain) | recognizing PARylated PARP-1 (fluorescence) (PARylated PARP-1; listed as WWE domain from RNF146) | detection of PARP-1 activation / PARylation in live cell imaging (PARP-1 activation) | recognizing PARylated PARP-1 (fluorescence) (PARylated PARP-1) | recognizing PARylated PARP-1 (fluorescence) (PARylated PARP-1; listed as macrodomain)
1 | PAR-T ddGFP: WWE domain from RNF146 fused to dimerization-dependent GFP monomers ddGFP-A and ddGFP-B (protein) chain 1: MGHHHHHHHHHHSSGHIDDDDKHMLEGNGEYAWYYEGRNGWWQYDERTSRELEDAFSKGKKNTEMLIAGFLYVADLENMVQYRRNEHGRRRKIKRDIIDIPKKGVAGLRLEFSTGHGTGSTGSGSSGTASSESTGSSMASKSEEVIKEFMRFKVRLEGSMNGHEFEIEGEGEGRPYEGTQTAKLKVTKGGPLPFAWDILSPLIMYGSKMYVKHPADVPDYMKLSFPEGFKWERVMHFEDGGLVTATQDSSLQDGTLIYKVKMRGTNFPPDGPVMQKKTLGWDYATERLYPEEGVLKGELLGRLKLKDGGLNLVESKTIYMAKKPVQLPGYYFVDTKLDITSHNEDYTIVEQYERSEGRHHLGH chain 2: MGHHHHHHHHHHSSGHIDDDDKHMLEGNGEYAWYYEGRNGWWQYDERTSRELEDAFSKGKKNTEMLIAGFLYVADLENMVQYRRNEHGRRRKIKRDIIDIPKKGVAGLRLEFSTGHGTGSTGSGSSGTASSESTGSSTIKEFMRFKVRMEGSMNGHEFEIEGEGEGRPYEGTQTAKLKVTKGGPLPFAWDILSPQIMYGSKAYVRHPADIPDYKKLPFPEGFKWERVMNFEDGGLVTVTQDSSLQDGTLICKVKIRGTNFPPDGPVMQKKTMGWEASTEMLYPKDGVLKGHSYQALKLKDGGHYLVEFETIYMAKKPVQLPGDYCVDTKLDITSHNEDYTIVEQYGRSEGRHRLGMDERYK | worked better | performed well | detected PARP-1 activation | – | –
2 | macrodomain from AF1521: macrodomain from AF1521 fused to ddGFP-A/B, recombinant ARBD-ddGFP pair (protein, listed as Archaeoglobus fulgidus) MERRTLIMEVLFEAKVGDITLKLAQGDITQYPAKAIVNAANKRLEHGGGVAYAIAKACAGDAGLYTEISKKAMREQFGRDYIDHGEVVVTPAMNLEERGIKYVFHTVGPICSGMWSEELKEKLYKAFLGPLEKAEEMGVESIAFPAVSAGIYGCDLEKVVETFLEAVKNFKGSAVKEVALVIYDRKSAEVALKVFERSL | – | – | – | performed well | worked better
3 | WWE-macrodomain combination sensor: ddGFP sensor pair combining WWE domain from RNF146 and macrodomain from AF1521 (protein, left off: small tags and cut ends, ddGFP sensor pair combining WWE domain from RNF146 and macrodomain from AF1521) chain 1: MGNGEYAWYYEGRNGWWQYDERTSRELEDAFSKGKKNTEMLIAGFLYVADLENMVQYRRNEHGRRRKIKRDIIDIPKKGVAGLR chain 2: MERRTLIMEVLFEAKVGDITLKLAQGDITQYPAKAIVNAANKRLEHGGGVAYAIAKACAGDAGLYTEISKKAMREQFGRDYIDHGEVVVTPAMNLEERGIKYVFHTVGPICSGMWSEELKEKLYKAFLGPLEKAEEMGVESIAFPAVSAGIYGCDLEKVVETFLEAVKNFKGSAVKEVALVIYDRKSAEVALKVFERSL | – | – | failed to recognize PARylation in cells | able to detect PARylation in vitro | –
